Data published in article PMC5863373.
pKd: −log10 of the molar value.

How the values were obtained:
[1] = biological target: human mitochondrial lysyl-tRNA synthetase with a C-terminal HA-tag (human) (UniProt Q15046); experiment: AlphaScreen or HTRF; HTRF as in a1, Pol on mLysRS in the presence of 1 μM tRNA3^Lys
[2] = biological target: human mitochondrial lysyl-tRNA synthetase with a C-terminal HA-tag (human) (UniProt Q15046); experiment: AlphaScreen or HTRF; HTRF; 1.5 nM mLysRS-HA or mLysRS∆C-HA (dimer) with rising His-tagged Pol (0.02 to 10 nM dimer), IN (0.5 to 125 nM dimer) or TF (1 to 1000 nM monomer); 10 mM Tris-HCl pH 7.5, 50 mM NaCl, 10 mM 2-mercaptoethanol, BSA 1 mg/ml, 1 h on ice; anti-H6-Eu3+ cryptate and anti-HA-XL665; apparent Kd
[3] = biological target: human mitochondrial lysyl-tRNA synthetase with a C-terminal HA-tag (human) (UniProt Q15046); experiment: as above; remark: listed apart in the source
p38 (Homo sapiens) = p38 (Homo sapiens) (UniProt Q13155); experiment: SPR; conditions: cited from earlier work
p38 (Homo sapiens), sequence (Q13155 whole entry): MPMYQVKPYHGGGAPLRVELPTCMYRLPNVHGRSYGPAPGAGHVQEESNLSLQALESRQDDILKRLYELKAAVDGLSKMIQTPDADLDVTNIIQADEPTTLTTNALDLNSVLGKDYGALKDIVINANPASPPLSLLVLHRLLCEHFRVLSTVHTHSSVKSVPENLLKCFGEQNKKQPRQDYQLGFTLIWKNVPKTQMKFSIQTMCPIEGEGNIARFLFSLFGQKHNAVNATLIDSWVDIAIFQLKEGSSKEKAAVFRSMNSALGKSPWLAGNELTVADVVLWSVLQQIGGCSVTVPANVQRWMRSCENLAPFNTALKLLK

| Substance | pKd [1] | pKd [2] | pKd [3] | pKd (p38 (Homo sapiens)) |
| --- | --- | --- | --- | --- |
| HIV-1 Pol polyprotein (Pol region of GagPol) with a C-terminal His6 tag (natural protein) | 9.15 | 8.89 | – | – |
| HIV-1 integrase with a C-terminal His6 tag (domain or fragment) | – | 7.93 | 7.89 | – |
| mLysRS (from UniProt Q15046) | – | – | – | 9.52 |
